In the DeepSol protein solubility set:

Experiment: soluble on expression in E. coli; label from the status in PepcDB or PDB records

Sequence | soluble on expression in E. coli
MSNTSSSHNTAFTPSSPAERYAQALASGQFMPDEAQAQAVQELERVWQELLSRYKASKKAFRRFRRQTSPKGVYMWGGVGRGKTWLMDQFYDSIPFRRKTRMHFHHFMQHVHRELNKLSGQRNPLDLVADQIYKDAVIICFDEFFVSNVTDAMILSDLFQKLFNRGVTLVATSNIAPDGLYKNGIHRDRFLPTIELVQKNCTILNVDAGVDYRLRVLKQAQLFKHPLTDDAKIWMSQRFSAITRSQIVSQQPITINNRVVETLGHTEDVLWCEFSELCLKPRSPADFIEIANIYNTVLVSNVPHLTDYLSEGTRRFIYLVDEFYDRGVKLLLTSQDSIIEIYEGEKLAFEIERTRSRLLEMQSDEYLHSEHRHINSENNSLEHHHHHH | not soluble
GPGSMSSSPNPMGAGTASATPKSTGGPEASPGSVRRSTLYAVLNVSHTATLEEITAAYRKLALVYHPDRPNGLQWKFQEIQRAYEVLSQKDARAKYDILLRGKLAVKNFKRPPPLESVLQPVYALLADGAFYEFEAASSKLKCSFHYGDGIQFNGDCGSFIGLAGDGFIYWTISGRGFASRLCKAGSTFALSSVRVMYRSNMGLAKMPLKRSSLHSSHTCRPAGSSGDKRAVRGSTGDAGCSERAKSTTGARAAKMSEADRIKKALLNKERSRNLKRRMETLKEEEIEARNSLQQDLWGQFSSLHTTAEVAFRCTLQGVAVPVEMALWMGYKSPEEVMLRSSGACSSLFIAEQVSLQTSSLWVDPLQSDYFNDDEMLREGCDGNKEDRKHCTSNGRDVTARHKPDSADSSPCSSQSSPASDGAPDGDACRGRSATASGTHSPILHRLNNGATAVTGASDGAEVAKKE | not soluble
PVTNMAELDAMIARVKKAQEEFATYSQEQVDKIFRAASLAANQARIPLAQQAVEESGMGIVEDKVIKNHFASEFIYNKYKDEQTCGILEEDDNLGTMTIAEPVGIICGIVPTTNPTSTAIFKSLISLKTRNGIIFSPHPRAKNSTNDAAKLVLDAAVAAGAPKDIIGWIDQPSVELSNALMKHDDIALILATGGPGMVKAAYSSGKPAIGVGAGNVPVVIDETADIKRAVASVLMSKTFDNGVVCASE | not soluble
GPVDPAEYDAVWSAWRRAAPAEESRGRAAVVQKMRACLNNGNAVLNVGESGLTTLPDCLPAHITTLVIPDNNLTSLPALPPELRTLEVSGNQLTSLPVLPPGLLELSIFSNPLTHLPALPSGLCKLWIFGNQLTSLPVLPPGLQELSVSDNQLASLPALPSELCKLWAYNNQLTSLPMLPSGLQELSVSDNQLASLPTLPSELYKLWAYNNRLTSLPALPSGLKELIVSGNRLTSLPVLPSELKELMVSGNRLTSLPMLPSGLLSLSVYRNQLTRLPESLIHLSSETTVNLEGNPLSERTLQALREITSAPGYSGPIIRFDMAGASAPRETRALHLAAADWLVPAREGEPAPADRWHMFGQEDNADAFSLFLDRLSETENFIKDAGFKAQISSWLAQLAEDEALRANTFAMATEATSSCEDRVTFFLHQMKNVQLVHNAEKGQYDNDLAALVATGREMFRLGKLEQIAREKVRTLALVDEIEVWLAYQNKLKKSLGLTSVTSEMRFFDVSGVTVTDLQDAELQVKAAEKSEFREWILQWGPLHRVLERKAPERVNALREKQISDYEETYRMLSDTELRPSGLVGNTDAERTIGARAMESAKKTFLDGLRPLVEEMLGSYLNV | soluble
MSLTMAKTLYEKVFDAHVVYEGKNELPILYIDRHLIHEVTSPQAFSGLKMAKRRMARADLTLATIDHDVSTKSMDLNACSDMAKEQITTLMQNTKEFGVRLLGLGDKNQGIVHIVGPELGFTLPGVTLVCGDSHTATHGAFGALAFGIGTSEVEHVMATQTLKQAKLKTMKIECKGQFQKGVYTKDLILYLIAQYGTAKGTGYAIEFCGELIRNLSMEARMTLCNMAIEFGAKVGMIAPDEITFEYIKGKEFAPKGEEFQKYCEYWKSLRSDEGAKYDASITLDVSKIKPQISYGTNPSQVIGIDEKIPKISDFKNQSEQKSLLDALYYVNLEQDQVIEGVKIDIVFIGSCTNGRLEDLKIAADILKGRKIHKNVKALIVPGSMQVRKEAENLGLDKIFIEAGCEWRYAGCSMCLGMNDDKANSGQRVASTSNRNFVGRQGKGSITHLMSPASAAACAIEGVICDNRKYLGEGHHHHHH | soluble
AHHHHHHGSGKRVVIALGGNALQQRGQKGSYEEMMDNVRKTARQIAEIIARGYEVVITHGNGPQVGSLLLHMDAGQATYGIPAQPMDVAGAMSQGWIGYMIQQALKNELRKRGMEKKVVTIITQTIVDKNDPAFQNPTKPVGPFYDEETAKRLAREKGWIVKEDSGRGWRRVVPSPDPKGHVEAETIKKLVERGVIVIASGGGGVPVILEDGEIKGVEAVIDKDLAGEKLAEEVNADIFMILTDVNGAALYYGTEKEQWLREVKVEELRKYYEEGHFKAGSMGPKVLAAIRFIEWGGERAIIAHLEKAVEALEGKTGTQVLP | soluble
MGSDKIHHHHHHMEVFCDVDDFCAVFIPEWEKTLLTDGTRKRQRAGRMTMSEVMTIIILFQMSHHRDFKNFYIGYLAHFYKSAFPNLLSYTRFLEVMPTALVPLCSDFTCLKSEPTGTEFVDSTRIKVCHNLRIHRHKTLAGLACRGKGTMGWFYGFKLHLIVNHQGGIVAAKVTPANVHDTKPMNEMVRSDMDKLYADKGFISKALSSELQEKGVTLVTNVRKNMKEKVMSLWDRAMLSRRFIIETINDQLKNISQIEHSRHRSGHGFMLNMIAGLIAYQLKDNKPQLNITSAEFNAIAVMAR | not soluble
MIRLILILINILFCHYLYALDCQKRLFDISINEKLSIQESLDELAKYCSFSIIVKDKIAKEKLETLQNSVNIHQMSLDEIFNFFIKEHDLSYDFDGKILRISGINTKIFKISYITSIREGQSITKASVDAKPRQSEYSGSFDDAEDNMIKSMEKFDFWQNIEKEIIVLLKNSHEDYEAKTPIINPNAGLIIVTGTNSQLKSVKNYLQKLENRLKKQVIIDVSILAVSLNESHSSGINWQNFNIGLNSQVNNENSFIQFQNGQGFVKNLGLRANLNFDSIINFLSQNGKTSVLSNPKLMALNNQQAIISVGDTINYQVKESSKGTENGTTVSESYNNYSIFVGILLNILPEISDDGKIMLRINPSLSDFKYPEDNKRQKEPRTIAPDTIQKKLSSVVQVENNQTLILGGLISHDKSNEKNSINFLSKIPILGSLFKGEVLNSKATEIVFIITPSIVDSVNAPSLKDLGFKHYELEHHHHHH | not soluble
GSFTGQGDFHLLDHRGRARCKADFRGQWVLMYFGFTHCPDICPDELEKLVQVVRQLEAEPGLPPVQPVFITVDPERDDVEAMARYVQDFHPRLLGLTGSTKQVAQASHSYRVYYNAGPKDEDQDYIVDHSIAIYLLNPDGLFTDYYGRSRSAEQISDSVRRHMAAFRSVLS | soluble
KVWKPGDECFALYWEDNKFYRAEVEALHSSGMTAVVKFTDYGNYEEVLLSNIKPVQTEAWVRDPN | soluble
AFEKKTANIYTYKSTSGVTSFSDIEPLDVDFSRYRFDCYACEVDSLIDWRKATLYLQPYKNDINKAALKYDIDPAFVRAVIHAESHFNPQAVSKQGAQGLMQLMPATAKELGVRNSLSAQQNIKGGVKHLARLLRKYKGDNKLASAAYNAGEGAVKRHGGIPPYKETQVYVERVGILHQRYGRFSH | not soluble
MQGKIIKSLAGFYYVESEGQVYQTRARGNFRKRGETPYVGDIVDFSAEDNSEGYILAIHPRKNSLVRPPIVNIDQAVVIMSAKEPEFNSNLLDRFLILLEHKAIHPVVYISKMDLLDSPEEIKAIGRQYQAIGYDFVTSLEELLPLLADKITVFMGQTGVGKSTLLNRIAPELALEIGEISDSLGRGRHTTRAVSFYNTHGGKIADTPGFSSLDYDIANAEDLNEAFPELRRLSHECKFRSCTHTHEPKCAVKAALETGELWPVRYEHYLQFLSEIENRRETYKKVIKRK | not soluble
MKKILDACCGSRMFWFDKQNDQVLFMDNRKHYEKLESGHIVAVNPNIVADFRKMPFDDNSFYHVVFDPPHLLRAGSNSWLAKKYGKLNEQTWKEDIQKGFSECMRVLKPNGTLVFKWNEDQIKLSEILSIIDYEPLYGNKRAKTHWLVFMKESEENESNGLEHHHHHH | not soluble
PAQDYRCQLSRNYGKGSGSFTNYYYDKATSSCKTFRYRGSGGNGNRFKTLEDCEATCVTAE | soluble
